Measured values as given in patent publication US20160152686A1.

What was measured:
[1] = biological target: VEGFR2 as engaged in the VEGF hBa/F3 proliferation assay; assay: cell-based or functional assay
[2] = biological target: human serum albumin (human) (UniProt P02768); assay: SPR, affinity to HSA
Chain of human serum albumin (human) (P02768 25-609): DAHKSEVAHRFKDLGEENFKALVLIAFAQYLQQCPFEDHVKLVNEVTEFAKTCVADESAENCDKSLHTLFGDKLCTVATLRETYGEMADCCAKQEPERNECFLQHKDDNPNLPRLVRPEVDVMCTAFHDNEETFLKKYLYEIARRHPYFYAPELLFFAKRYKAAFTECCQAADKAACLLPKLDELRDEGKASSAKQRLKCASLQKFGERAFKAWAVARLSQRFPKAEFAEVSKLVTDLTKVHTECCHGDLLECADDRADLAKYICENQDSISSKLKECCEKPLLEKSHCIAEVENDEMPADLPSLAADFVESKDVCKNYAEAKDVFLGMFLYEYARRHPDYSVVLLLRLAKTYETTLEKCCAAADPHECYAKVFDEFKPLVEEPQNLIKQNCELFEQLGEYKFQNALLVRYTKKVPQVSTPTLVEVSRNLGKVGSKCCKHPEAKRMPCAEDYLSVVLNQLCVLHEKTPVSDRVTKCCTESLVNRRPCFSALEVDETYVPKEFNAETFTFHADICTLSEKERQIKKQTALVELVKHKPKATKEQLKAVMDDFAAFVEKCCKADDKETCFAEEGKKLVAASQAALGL

Substance	IC50, VEGF hBa/F3 proliferation assay [1]	IC50, VEGF hBa/F3 proliferation assay, with HSA [1]	Rel Pot (C7FL), VEGF hBa/F3 proliferation assay [1]	Rel Pot (C7FL), VEGF hBa/F3 proliferation assay, with HSA [1]	Kd [2] [nM]
CT-322 (C7FL lacking the 8 N-terminal amino acids and linked to PEG) (designed binder)	7.53	8.85	0.62	0.53	
ABD (alone; column 'ABD' of Table 6)					1.6 to 2.6
